In patent US20220064322A1:
Read-outs that look alike come from different tables or passages of the source.

Key:
[1] = biological target: human CD73 on the cell surface (293T/17-huCD73 cells) (human) (UniProt P21589); test: flow cytometry on 293T/17 cells expressing huCD73, APC-labelled goat anti-human antibody, MFI
[2] = biological target: human CD73 on the cell surface (293T/17-huCD73 cells) (human) (UniProt P21589); test: flow cytometry on 293T/17-huCD73 cells
[3] = biological target: human CD73 on the cell surface (293T/17-huCD73 cells) (human) (UniProt P21589); test: flow cytometry on 293T/17-human CD73 cells
[4] = biological target: human CD73 on the cell surface (293T/17-huCD73 cells) (human) (UniProt P21589); test: flow cytometry on 293T/17-huCD73 cells, curve fit
[5] = biological target: human CD73 on the cell surface (293T/17-huCD73 cells) (human) (UniProt P21589); test: cell-based or functional assay
[6] = biological target: human CD73 on the cell surface (293T/17-huCD73 cells) (human) (UniProt P21589); test: cell-based or functional assay; remark: listed apart in the source
[7] = biological target: human CD73 on the cell surface (293T/17-huCD73 cells) (human) (UniProt P21589); test: cell-based or functional assay; remark: listed apart in the source
[8] = biological target: human CD73 on the cell surface (293T/17-huCD73 cells) (human) (UniProt P21589); test: flow cytometry on 293T/17-human CD73 cells, curve fit
[9] = biological target: T1, human CD73 on the cell surface (293T/17-huCD73 cells) (human), P21589; test: cell-based or functional assay
[10] = biological target: T1, human CD73 on the cell surface …; test: cell-based or functional assay; remark: listed apart in the source
[11] = biological target: T1, human CD73 on the cell surface …; test: cell-based or functional assay; remark: listed apart in the source
[12] = biological target: human CD73 on the cell surface (293T/17-huCD73 cells) (human) (UniProt P21589); test: flow cytometry on 293T/17-huCD73 cells, fluorescently labelled detection antibody, MFI

Sequence of human CD73 on the cell surface (293T/17-huCD73 cells) (human) (P21589 27-549): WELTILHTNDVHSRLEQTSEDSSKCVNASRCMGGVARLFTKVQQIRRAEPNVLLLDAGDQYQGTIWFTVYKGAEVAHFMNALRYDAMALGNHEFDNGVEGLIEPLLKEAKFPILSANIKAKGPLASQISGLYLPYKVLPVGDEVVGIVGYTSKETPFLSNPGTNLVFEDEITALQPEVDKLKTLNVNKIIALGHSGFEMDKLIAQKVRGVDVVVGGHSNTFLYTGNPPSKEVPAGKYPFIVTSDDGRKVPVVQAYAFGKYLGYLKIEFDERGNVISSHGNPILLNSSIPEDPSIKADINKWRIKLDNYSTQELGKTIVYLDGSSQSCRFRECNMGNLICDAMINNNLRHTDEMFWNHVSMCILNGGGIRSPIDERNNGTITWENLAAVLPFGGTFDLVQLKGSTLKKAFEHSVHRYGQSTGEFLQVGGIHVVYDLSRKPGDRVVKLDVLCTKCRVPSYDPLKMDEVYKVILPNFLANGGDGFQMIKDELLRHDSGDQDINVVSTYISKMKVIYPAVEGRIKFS
T1 sequence (P21589 27-549): as above

Row | Binder | EC50 (read off the curve) [1] [pM] | EC50 [3] [pM] | IC50, blockade of 5'exonuclease activity of U87-MG cells [5] [pM] | IC50, blockade of 5'exonuclease activity on 293T/17-human CD73 cells [5] [pM] | EC50, reversal of AMP-mediated human CD4+ T cell proliferation inhibition [6] [pM] | EC50, release of IFN-γ from CD4+ T cells (ELISA of supernatant) [7] [pM] | Bottom [8] [fluorescence] | Top [8] [fluorescence] | other results
1 | JB24Chi (antibody, human IgG1, kappa, V domains shown) VH: QVQLQQSGLELVKPGASVKMSCKASGYTFTDYNMHWVKQSHGKSLEWIGYIKPHNGGTTYNPKFEGKATLTVNKSSSTAYMELRSLTSEDSAVYYCVRCDFLYWYFDVWGTGTTVTVSS VL: DIVMTQSPAIMSASLGERVTMTCTASSSVSSSYLHWYQQKPGSSPKLWIYSTSNLASGVPGRFSGSGSGTSYSLTISSMEAEDAATYYCHQYHRSPLTFGAGTKLEMKR | 6000 | 5330 | 53 | 6 | 3 | 6 | 3.72 | 196 | EC50 [2]: 1140 pM; Bottom (fluorescence intensity) [4]: -1.47; Top (fluorescence intensity) [4]: 42; EC50, release of IFN-γ from CD4+ T cells (ELISA of supernatant) [5]: 13.2 pM; EC50, reversal of AMP-mediated human CD4+ T cell proliferation inhibition [5]: 7 pM; IC50, antibody-mediated internalization of CD73 on MDA-MB-231 cells (Fab-ZAP saporin conjugate) [5]: 12 pM; IC50, blockade of 5'exonuclease activity on 293T/17-HuCD73 cells [5]: 31 pM; IC50, blockade of CD73 enzyme activity of CD4+ T cells (CellTiter-Glo) [5]: 9 pM
2 | JB94H2L1 (antibody, human IgG1, kappa, V domains shown) VH: QVQLVQSGAEVKKPGASVKVSCKASGYTFTSYWMHWVRQRPGQGLEWMGYINPSSGYTKSNQKFKDRVTLTADTSTSTAYMELSSLRSEDTAVYYCGRWLLSAWFAYWGQGTLVTVSS VL: DIQMTQSPSSLSASVGDRVTITCKASQDINTYLSWFQQKPGKAPKSLIYRSNILVDGVPSRFSGSGSGQDFTLTISSLQPEDFAIYYCLQYDDFPYTFGQGTKLEIKR |  | 9150 | 214 | 5 | 32 | 2 | 0.604 | 223 | 
3 | JB94H3L3 (antibody, human IgG1, kappa, V domains shown) VH: QVQLQQSGAEVKKPGASVKLSCKASGYTFTSYWMHWVRQRPGQGLEWIGYINPSSGYTKSNQKFKDRATLTADTSTSTAYMELSSLRSEDTAVYYCGRWLLSAWFAYWGQGTLVTVSS VL: DIQMTQSPSSLSASVGDRVTITCKASQDINTYLSWFQQKPGKSPKSLIYRSNILVDGVPSRFSGSGSGQDYTLTISSLQPEDFAIYYCLQYDDFPYTFGQGTKLEIKR |  | 15300 | 456 | 4 | 3 | 3 | 1.78 | 239 | 
4 | JB24H2L1 (antibody, human IgG1, kappa, V domains shown) VH: QVQLVQSGAEVKKPGASVKMSCKASGYTFTDYNMHWVRQSPGKSLEWIGYIKPHNAGTTYNPKFEGRATLTVDTSASTAYMELSSLRSEDTAVYYCVRSDFLYWYFDVWGQGTTVTVSS VL: DIQMTQSPSSLSASVGDRVTITCTASSSVSSSYLHWYQQKPGKAPKLLIYSTSNLASGVPSRFSGSGSGTDFTLTISSLQPEDFATYYCHQYHRSPLTFGAGTKLEIKR | 2000 | 2400 | 474 | 42 | 32 | 2 | 1.64 | 82.2 | 
5 | JB24H3L3 (antibody, human IgG1, kappa, V domains shown) VH: QVQLVQSGAEVKKPGASVKMSCKASGYTFTDYNMHWVKQSHGKSLEWIGYIKPHNAGTTYNPKFEGRATLTVDTSASTAYMELRSLRSEDTAVYYCVRSDFLYWYFDVWGQGTTVTVSS VL: DIVMTQSPSSLSASVGDRVTITCTASSSVSSSYLHWYQQKPGSSPKLWIYSTSNLASGVPGRFSGSGSGTDYTLTISSLQPEDFATYYCHQYHRSPLTFGAGTKLEIKR |  | 7410 | 120 | 16 | 68 | 345 | 0.131 | 120 | 
6 | JB24H3L2 (antibody, human IgG1, kappa, V domains shown) VH: QVQLVQSGAEVKKPGASVKMSCKASGYTFTDYNMHWVKQSHGKSLEWIGYIKPHNAGTTYNPKFEGRATLTVDTSASTAYMELRSLRSEDTAVYYCVRSDFLYWYFDVWGQGTTVTVSS VL: DIQMTQSPSSLSASVGDRVTITCTASSSVSSSYLHWYQQKPGSAPKLWIYSTSNLASGVPSRFSGSGSGTDYTLTISSLQPEDFATYYCHQYHRSPLTFGAGTKLEIKR | 3000 | 3010 | 270 | 14 | 22 | 15 | 1.78 | 91.7 | 
7 | 94H1L3 hIgG2 (antibody) heavy: QVQLVQSGAEVKKPGASVKVSCKASGYTFTSYWMHWVRQAPGQGLEWMGYINPSSGYTKSNQKFKDRVTMTADTSTSTAYMELSSLRSEDTAVYYCGRWLLSAWFAYWGQGTLVTVSSASTKGPSVFPLAPCSRSTSESTAALGCLVKDYFPEPVTVSWNSGALTSGVHTFPAVLQSSGLYSLSSVVTVPSSNFGTQTYTCNVDHKPSNTKVDKTVERKCCVECPPCPAPPVAGPSVFLFPPKPKDTLMISRTPEVTCVVVDVSHEDPEVQFNWYVDGVEVHNAKTKPREEQFNSTFRVVSVLTVVHQDWLNGKEYKCKVSNKGLPAPIEKTISKTKGQPREPQVYTLPPSREEMTKNQVSLTCLVKGFYPSDIAVEWESNGQPENNYKTTPPMLDSDGSFFLYSKLTVDKSRWQQGNVFSCSVMHEALHNHYTQKSLSLSPGK light: DIQMTQSPSSLSASVGDRVTITCKASQDINTYLSWFQQKPGKSPKSLIYRSNILVDGVPSRFSGSGSGQDYTLTISSLQPEDFAIYYCLQYDDFPYTFGQGTKLEIKRTVAAPSVFIFPPSDEQLKSGTASVVCLLNNFYPREAKVQWKVDNALQSGNSQESVTEQDSKDSTYSLSSTLTLSKADYEKHKVYACEVTHQGLSSPVTKSFNRGEC |  |  |  |  |  |  |  |  | EC50, reversal of AMP-mediated human CD4+ T cell proliferation inhibition [9]: 12 pM; IC50, blockade of 5'exonuclease activity on 293T/17-human CD73 cells [10]: 7 pM; EC50, release of IFN-γ from CD4+ T cells (ELISA of supernatant) [11]: 1 pM
8 | 191C3A8B9 (antibody, mouse IgG1, kappa, V domains shown) VH: QVQLKESGPGLVAPSQSLSITCTVSGFSLTNYGVHWVRQPPGKGLEWLGVIWAGGSTNYNSALMSRLSISKDNSKSQLFLKMNSLQADDTAMYYCARERGSSWGTMDYWGQGTSVTVSS VL: QIVLTQSPAIMSASPGEKVTMTCSASSRVSYMHWYQQKSGTSPKRWIYDTSQLASGVPARFSGSGSGTSYSLTISSMEAEDAATYYCQQWSSNPYTFGGGTKLEMRR |  |  |  |  |  |  |  |  | EC50 (read off the curve) [12]: 1000 pM; EC50 [2]: 828 pM; Bottom (fluorescence intensity) [4]: 2.67; Top (fluorescence intensity) [4]: 105; IC50, blockade of 5'exonuclease activity on 293T/17-HuCD73 cells [5]: 9 pM
9 | 66-hIgG2 (antibody) heavy: QVHLQQSGAELAKPGASVNLSCKASGYAFTSYWMHWVKQRPGQGLEWIGYINPSSGLAKYNQKFKDKATLTTDKSSNTAYMQLSSLTYDDSAVYYCGRWLLSAWFAYWGQGTLVTVSAASTKGPSVFPLAPCSRSTSESTAALGCLVKDYFPEPVTVSWNSGALTSGVHTFPAVLQSSGLYSLSSVVTVPSSNFGTQTYTCNVDHKPSNTKVDKTVERKCCVECPPCPAPPVAGPSVFLFPPKPKDTLMISRTPEVTCVVVDVSHEDPEVQFNWYVDGVEVHNAKTKPREEQFNSTFRVVSVLTVVHQDWLNGKEYKCKVSNKGLPAPIEKTISKTKGQPREPQVYTLPPSREEMTKNQVSLTCLVKGFYPSDIAVEWESNGQPENNYKTTPPMLDSDGSFFLYSKLTVDKSRWQQGNVFSCSVMHEALHNHYTQKSLSLSPGK light: DIKMTQSPSSIYASLGERVTITCKASQGINTYLSWFQQKPGKSPKTLIYRANILVDGVPSRFSGSGSGQDYSLTINSLEYEDMGIYYCLQYDEFPYTFGGGTKLEIKRTVAAPSVFIFPPSDEQLKSGTASVVCLLNNFYPREAKVQWKVDNALQSGNSQESVTEQDSKDSTYSLSSTLTLSKADYEKHKVYACEVTHQGLSSPVTKSFNRGEC |  |  |  |  |  |  |  |  | IC50, antibody-mediated internalization of CD73 on MDA-MB-231 cells (Fab-ZAP saporin conjugate) [10]: 22 pM
10 | 94-hIgG2 (antibody) heavy: QVQLQQSGAELAKPGASVKLSCKASGYTFTSYWMHWVKQRPGQGLEWIGYINPSSGYTKSNQKFKDKATLTADKSSSTAYMQLSSLTYEDSAVYYCGRWLLSAWFAYWGQGTLVTVSAASTKGPSVFPLAPCSRSTSESTAALGCLVKDYFPEPVTVSWNSGALTSGVHTFPAVLQSSGLYSLSSVVTVPSSNFGTQTYTCNVDHKPSNTKVDKTVERKCCVECPPCPAPPVAGPSVFLFPPKPKDTLMISRTPEVTCVVVDVSHEDPEVQFNWYVDGVEVHNAKTKPREEQFNSTFRVVSVLTVVHQDWLNGKEYKCKVSNKGLPAPIEKTISKTKGQPREPQVYTLPPSREEMTKNQVSLTCLVKGFYPSDIAVEWESNGQPENNYKTTPPMLDSDGSFFLYSKLTVDKSRWQQGNVFSCSVMHEALHNHYTQKSLSLSPGK light: DIRMTQSPSSMYASLGERVTITCKASQDINTYLSWFQQKPGKSPKSLIYRSNILVDGVPSRFSGSGSGQDYSLTISSLEYEDMGIYYCLQYDDFPYTFGGGTKLEIKRTVAAPSVFIFPPSDEQLKSGTASVVCLLNNFYPREAKVQWKVDNALQSGNSQESVTEQDSKDSTYSLSSTLTLSKADYEKHKVYACEVTHQGLSSPVTKSFNRGEC |  |  |  |  |  |  |  |  | IC50, antibody-mediated internalization of CD73 on MDA-MB-231 cells (Fab-ZAP saporin conjugate) [10]: 19 pM
